Laboratory results published in article PMC6038053, “Structural and Functional Insights Into Lysostaphin–Substrate Interaction” (Frontiers in Molecular Biosciences, 2018).
Entries after “also recorded” stand apart in the source; their conditions may differ. Like-named read-outs stand apart in the source and are kept apart here. Non-standard residues stand in square brackets, D forms with d. Residues, ends and D or L forms follow the SMILES beside them.

Tests used:
lysostaphin CWT domain = molecular target: T1, lysostaphin CWT domain (Staphylococcus simulans, UniProt P10547); format: binding
T1 construct: DNA encoding the CWT domain (residues 402-493) was amplified; GST (from the pGEX-2T vector); made in house; host or cells: E. coli BL21 (DE3)
Protocol: The pentaglycine binding site on the CWT domain was determined by comparing the ^1H, ^15N, and ^1H, ^13C HSQC spectra of full-length lysostaphin and CWT domain acquired in the presence and absence of a large amount, ~170 molar excess, of KGGGGG and GGGGGK hexapeptides (Sigma-Aldrich). […] CSPs, calculated as Δδ = (ΔδH^2+(0.154 × ΔδN)^2)^1/2, were plotted as a function of the molar ratio of titrated ligand to CWT domain. Dissociation constants for individual residues were obtained by nonlinear least squares fitting, as implemented in the program xcrvfit (www.bionmr.ualberta.ca/bds/software/xcrvfit). Site-specific dissociation constants were calculated as averages of dissociation constants of individual residues within the site. In all binding site studies protein to zinc concentration ratio was 1:1.

[1] = effect of presence of lysine, relative to pentaglycine
[2] = Pentaglycine cleavage by lysostaphin monitored by 1H NMR; format: biochemical; settings: for Relative activity: PBS pH 7.2, 21 h, 37 °C
Protocol: Pentaglycine cleavage by lysostaphin was monitored by ^1H NMR as described previously (Raulinaitis et al., [2017a]). Reactions took place in phosphate buffer saline (PBS), pH 7.2, with >90% D2O by volume as a solvent and final volumes were 600 μL. Initial pentaglycine (Sigma-Aldrich) and lysostaphin concentrations were 1 mM and 2.25 μM, respectively. Metal ions (ZnCl2, CoCl2, CuCl2, and MnCl2) were added as needed. Residual activity of lysostaphin “apo” form was taken into account in activity calculations. Measurements were carried out by using a Bruker Avance III 600 MHz spectrometer, equipped with a QCI ^1H/^13C/^15N/^31P cryoprobe and a SampleJet automated sample changer. The preheater of the sample changer was used for sample incubation when product formation was measured as a time series with 3-h intervals for 48 h. Single time-point samples were incubated in an incubator for 21 h and reactions were quenched by heating at 90°C for 15 min before proton spectra acquisitions at 37°C. The data were processed with Bruker TopSpin 3.5 software.
Proton NMR allows for direct and real-time reaction monitoring devoid of intricacies of cellular suspension (Raulinaitis et al., [2017a]). Scission of pentaglycine by lysostaphin was monitored for 48 h by ^1H NMR and under conditions of this study its catalytic rate appeared to be limited only by saturation with the substrate (Supplementary Figure 4). The substrate turnover rate by the enzyme in the first 3 h of the reaction is estimated to be in the order of 0.006 s^−1.
Figure 4 Lysostaphin activity dependence on zinc, cobalt, copper and manganese cofactors. Lysostaphin was incubated with pentaglycine (2.25 μM and 1 mM concentrations, respectively) in PBS buffer, pH 7.2, for 21 h at 37°C. Total cofactor ratios to protein were 1:1 and 3:1, EDTA excess was 70-fold. […] Activity was adjusted to one zinc-bound lysostaphin as 100% reference point. Bars represent standard error of the mean (S.E.M) of at least three independent measurements. TEXT PRINTED IN THE PICTURE: 1 Zn: Relative activity, %: 100.0 | 3 Zn: Relative activity, %: 79.8 | 1 Cu: Relative activity, %: 96.4 | 3 Cu: Relative activity, %: 183.3 | 1 Mn: Relative activity, %: 38.8 | 3 Mn: Relative activity, %: 40.3 | 1 Co: Relative activity, %: 79.1 | 100 EDTA: Relative activity, %: 12.8

[3] = tested on: CWT binding to S. aureus cells; set-up: method as in Gründling and Schneewind, 2006; settings: excess of pentaglycine; ref Gründling and Schneewind, 2006; cited from earlier work
[4] = molecular target: T2, lysostaphin cell wall targeting (CWT) domain (residues 402-493) (Staphylococcus simulans, UniProt P10547 402-493); assay: NMR titration; 1H,15N and 1H,13C HSQC spectra of the CWT domain with and without ~170 molar excess of hexapeptide; chemical shift perturbations; protein to zinc 1:1; settings: both partners purified
T2 construct: also called targeting domain; SH3b domain; source: E. coli BL21 (DE3), purified (Glutathione Sepharose, thrombin release, gel filtration on Superdex 75)

[5] = ~80 molar excess of the peptide, data not shown

T1 sequence (P10547 402-493): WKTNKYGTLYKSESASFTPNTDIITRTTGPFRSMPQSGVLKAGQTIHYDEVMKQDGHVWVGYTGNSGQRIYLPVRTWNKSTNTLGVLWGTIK
T2 sequence (P10547 402-493): as above

In the case of `C[C@H](N)C(=O)N[C@H](CCC(=O)O)C(=O)N[C@@H](CCCCN)C(=O)NCC(=O)NCC(=O)NCC(=O)NCC(=O)NCC(=O)N[C@@H](C)C(=O)N[C@H](CCC(=O)O)C(=O)N[C@@H](CCCCN)C(=O)N[C@H](C)C(=O)O` (H-A[dE]KGGGGGA[dE]K[dA]-OH; N-terminus and C-terminus assumed), the CSPs (lysostaphin CWT domain; ~24 molar excess) is reported as “significant CSPs”.

With GGGGGK [G5K] the “Largest peak shifts, Δδ (CSP)” value (lysostaphin CWT domain; residues N405, Y411, G430-F432, V452, M453, Y472, ~170 molar excess) was ≥ 0.10 ppm and the solubility [1] was “significantly enhanced the solubility”.

For KGGGGG [KG5], the solubility [1] was “significantly enhanced the solubility”.

For “Lysostaphin: S. simulans zinc-dependent endopeptidase with N-terminal catalytic domain and C-terminal cell wall targeting domain”, the Relative activity ([2]; 1 Co (1:1 cofactor to protein), adjusted to one zinc-bound lysostaphin = 100%, 2.25 μM lysostaphin, 1 mM pentaglycine, n ≥ 3) was 79.1%, the Relative activity ([2]; 1 Cu (1:1 cofactor to protein), adjusted to one zinc-bound lysostaphin = 100%, 2.25 μM lysostaphin, 1 mM pentaglycine, n ≥ 3) was 96.4% and the Relative activity ([2]; 1 Mn (1:1 cofactor to protein), adjusted to one zinc-bound lysostaphin = 100%, 2.25 μM lysostaphin, 1 mM pentaglycine, n ≥ 3) was 38.8%. For the same molecule, the Relative activity ([2]; 1 Zn (1:1 cofactor to protein), reference point 100%, 2.25 μM lysostaphin, 1 mM pentaglycine, at least three independent measurements) was 100.0%, the Relative activity ([2]; 3 Cu (3:1 cofactor to protein), adjusted to one zinc-bound lysostaphin = 100%, 2.25 μM lysostaphin, 1 mM pentaglycine, n ≥ 3) was 183.3% and the Relative activity ([2]; 3 Mn (3:1 cofactor to protein), adjusted to one zinc-bound lysostaphin = 100%, 2.25 μM lysostaphin, 1 mM pentaglycine, n ≥ 3) was 40.3%. The Relative activity ([2]; 3 Zn (3:1 cofactor to protein), adjusted to one zinc-bound lysostaphin = 100%, 2.25 μM lysostaphin, 1 mM pentaglycine, n ≥ 3) was 79.8%, the Relative activity ([2]; 100 EDTA (EDTA excess, residual activity), adjusted to one zinc-bound lysostaphin = 100%, 2.25 μM lysostaphin, 1 mM pentaglycine, n ≥ 3) was 12.8% and the “change of catalytic activity” value ([2]; Cu^2+ in excess) was “activity increases”. The “cofactor suitability for catalytic activity” value ([2]; Mn^2+) was “weak cofactor”, the “change of catalytic activity” value ([2]; excess of zinc (second zinc bound by catalytic histidines H329 and H360)) was “reduces lysostaphin pentaglycine cleaving activity; also recorded: partial inhibition” and the substrate turnover rate ([2]; first 3 h of the reaction, 1 mM pentaglycine, 2.25 μM lysostaphin, PBS pH 7.2, 37 °C, 1H NMR every 3 h for 48 h, estimated) was ~0.006 s⁻¹. For the same molecule, the “cofactor suitability for catalytic activity” value ([2]; metal cations Zn^2+, Co^2+, and Cu^2+) was “suitable cofactors”.

For “N-acetylmuramyl-L-alanyl-D-isoglutamine hydrate [N-acetylmuramyl-L-A-D-γ-Q hydrate]”, the CSPs (lysostaphin CWT domain; [5]) was “very small CSPs” and the “affinity of CWT domain” value (lysostaphin CWT domain; [5]) was “no significant affinity”.

For pentaglycine, the “affinity of targeting (CWT) domain in words” value (lysostaphin CWT domain; abstract / conclusions summary) is listed as “very low affinity; also recorded: extremely low affinity” and the “blocking of CWT binding to S. aureus cells” value [3] is listed as “cannot be blocked”.

B1: GGGGGK hexapeptide (peptide)
peptide: GGGGGK
notes: also called G5K; source: bought: Sigma-Aldrich
With B1 the Kd [4] was > 10 mM.
